In patent US8198021:

Legend:
[1] = target: Escherichia coli RNA polymerase (RNAP) holoenzyme (Escherichia coli) (UniProt P0A7Z4); test: fluorescence-detected abortive initiation assay (tri- and tetranucleotide synthesis), fit to partial-competitive inhibition
[2] = target: Escherichia coli RNA polymerase (RNAP) holoenzyme (Escherichia coli) (UniProt P0A7Z4); test: transcription assay at four NTP concentrations, fit to partial-competitive inhibition (7-mer and 8-mer abortive products); Ki called the reciprocal of the equilibrium binding constant for the MccJ25-RNAP interaction

Substance | α, the factor by which MccJ25 increases KM for NTPs (7-mer and 8-mer abortive products) (microcin J25) | α, the factor by which MccJ25 increases KM for NTPs (fluorescence-detected abortive initiation, tri- and tetranucleotide synthesis) (microcin J25) | Ki [1] [nM] | Ki [2] [nM]
Escherichia coli RNA polymerase (RNAP) holoenzyme | 15 | α 8.7±2 | – | –
microcin J25 (peptide) | – | – | 1200 | 1400
